Reference: the supplement of paper PMC5998384

What was measured:
HeLa Kyoto [1] = experiment: solubility change mitosis vs G1/S (difference of NP-40 vs SDS log2 ratios) (log2 ratio difference); higher = more soluble in mitosis
HeLa Kyoto [2] = experiment: solubility in G1/S (NP-40 vs SDS abundance) (log2 ratio); higher = more soluble; settings: cell cycle stage: G1/S
HeLa Kyoto [3] = experiment: thermal stability score vs G1/S (z-score of summed log2 fold changes over temperatures); higher = more thermally stable than in G1/S
HeLa Kyoto [4] = experiment: melting temperature (median over replicates), in situ; higher = more thermally stable
[5] = cell cycle stage: early G1 (4.5 h after nocodazole release)
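Throughout, for melting temperature (median over replicates), in situ: HeLa Kyoto cells synchronized by double thymidine or nocodazole block, proteins quantified by TMT10plex mass spectrometry, three independent biological replicates.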
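Throughout, for solubility change mitosis vs G1/S (difference of NP-40 vs SDS log2 ratios): synchronized HeLa Kyoto cells (double thymidine block for G1/S, nocodazole release for mitosis), protein amounts in NP-40 versus SDS lysates quantified by mass spectrometry, three biological replicates.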
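Throughout, for solubility in G1/S (NP-40 vs SDS abundance): HeLa Kyoto cells arrested at G1/S by double thymidine block, proteins quantified by TMT10plex mass spectrometry in mild NP-40 versus SDS extracts, three biological replicates.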
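Throughout, for thermal stability score vs G1/S (z-score of summed log2 fold changes over temperatures): synchronized HeLa Kyoto cells, proteins quantified by TMT10plex mass spectrometry, three biological replicates, mitosis taken 0.5 h after nocodazole release, G1/S directly after double thymidine block.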

Row | Substance | solubility change mitosis (log2) (HeLa Kyoto [1]) | solubility in G1/S (log2) (HeLa Kyoto [2]) | thermal stability score (HeLa Kyoto [3]; [5]) | thermal stability score (HeLa Kyoto [3]; cell cycle stage: mitosis) | melting temperature (HeLa Kyoto [4]; cell cycle stage: G1/S) [°C] | melting temperature (HeLa Kyoto [4]; cell cycle stage: mitosis) [°C]
1 | MMEESGIETTPPGTPPPNPAGLAATAMSSTPVPLAATSSFSSPNVSSMESFPPLAYSTPQPPLPPVRPSAPLPFVPPPAVPSVPPLVTSMPPPVSPSTAAAFGNPPVSHFPPSTSAPNTLLPAPPSGPPISGFSVGSTYDITRGHAGRAPQTPLMPSFSAPSGTGLLPTPITQQASLTSLAQGTGTTSAITFPEEQEDPRITRGQDEASAGGIWGFIKGVAGNPMVKSVLDKTKHSVESMITTLDPGMAPYIKSGGELDIVVTSNKEVKVAAVRDAFQEVFGLAVVVGEAGQSNIAPQPVGYAAGLKGAQERIDSLRRTGVIHEKQTAVSVENFIAELLPDKWFDIGCLVVEDPVHGIHLETFTQATPVPLEFVQQAQSLTPQDYNLRWSGLLVTVGEVLEKSLLNVSRTDWHMAFTGMSRRQMIYSAARAIAGMYKQRLPPRTV [PRRC1] | -0.346 | 0.495 | -1.27 | -1.08 | 58.8 | 58
2 | TRIP12 | 0.333 | -0.461 | -0.291 | 0.532 | 48.4 | 48.7
3 | MKRRTDPECTAPIKKQKKRVAELALSLSSTSDDEPPSSVSHGAKASTTSLSGSDSETEGKQHSSDSFDDAFKADSLVEGTSSRYSMYNSVSQKLMAKMGFREGEGLGKYSQGRKDIVEASSQKGRRGLGLTLRGFDQELNVDWRDEPEPSACEQVSWFPECTTEIPDTQEMSDWMVVGKRKMIIEDETEFCGEELLHSVLQCKSVFDVLDGEEMRRARTRANPYEMIRGVFFLNRAAMKMANMDFVFDRMFTNPRDSYGKPLVKDREAELLYFADVCAGPGGFSEYVLWRKKWHAKGFGMTLKGPNDFKLEDFYSASSELFEPYYGEGGIDGDGDITRPENISAFRNFVLDNTDRKGVHFLMADGGFSVEGQENLQEILSKQLLLCQFLMALSIVRTGGHFICKTFDLFTPFSVGLVYLLYCCFERVCLFKPITSRPANSERYVVCKGLKVGIDDVRDYLFAVNIKLNQLRNTDSDVNLVVPLEVIKGDHEFTDYMIRSNESHCSLQIKALAKIHAFVQDTTLSEPRQAEIRKECLRLWGIPDQARVAPSSSDPKSKFFELIQGTEIDIFSYKPTLLTSKTLEKIRPVFDYRCMVSGSEQKFLIGLGKSQIYTWDGRQSDRWIKLDLKTELPRDTLLSVEIVHELKGEGKAQRKISAIHILDVLVLNGTDVREQHFNQRIQLAEKFVKAVSKPSRPDMNPIRVKEVYRLEEMEKIFVRLEMKIIKGSSGTPKLSYTGRDDRHFVPMGLYIVRTVNEPWTMGFSKSFKKKFFYNKKTKDSTFDLPADSIAPFHICYYGRLFWEWGDGIRVHDSQKPQDQDKLSKEDVLSFIQMHRA [CMTR1] | -0.0832 | -0.186 | 0.699 | 1.05 | 49.7 | 51
4 | MAAYSYRPGPGAGPGPAAGAALPDQSFLWNVFQRVDKDRSGVISDTELQQALSNGTWTPFNPVTVRSIISMFDRENKAGVNFSEFTGVWKYITDWQNVFRTYDRDNSGMIDKNELKQALSGFGYRLSDQFHDILIRKFDRQGRGQIAFDDFIQGCIVLQRLTDIFRRYDTDQDGWIQVSYEQYLSMVFSIV [PDCD6] | 0.26 | 0.15 | 2.71 | 2.81 | 49.3 | 50.5
5 | MAGTVVLDDVELREAQRDYLDFLDDEEDQGIYQSKVRELISDNQYRLIVNVNDLRRKNEKRANRLLNNAFEELVAFQRALKDFVASIDATYAKQYEEFYVGLEGSFGSKHVSPRTLTSCFLSCVVCVEGIVTKCSLVRPKVVRSVHYCPATKKTIERRYSDLTTLVAFPSSSVYPTKDEENNPLETEYGLSVYKDHQTITIQEMPEKAPAGQLPRSVDVILDDDLVDKAKPGDRVQVVGTYRCLPGKKGGYTSGTFRTVLIACNVKQMSKDAQPSFSAEDIAKIKKFSKTRSKDIFDQLAKSLAPSIHGHDYVKKAILCLLLGGVERDLENGSHIRGDINILLIGDPSVAKSQLLRYVLCTAPRAIPTTGRGSSGVGLTAAVTTDQETGERRLEAGAMVLADRGVVCIDEFDKMSDMDRTAIHEVMEQGRVTIAKAGIHARLNARCSVLAAANPVYGRYDQYKTPMENIGLQDSLLSRFDLLFIMLDQMDPEQDREISDHVLRMHRYRAPGEQDGDAMPLGSAVDILATDDPNFSQEDQQDTQIYEKHDNLLHGTKKKKEKMVSAAFMKKYIHVAKIIKPVLTQESATYIAEEYSRLRSQDSMSSDTARTSPVTARTLETLIRLATAHAKARMSKTVDLQDAEEAVELVQYAYFKKVLEKEKKRKKRSEDESETEDEEEKSQEDQEQKRKRRKTRQPDAKDGDSYDPYDFSDTEEEMPQVHTPKTADSQETKESQKVELSESRLKAFKVALLDVFREAHAQSIGMNRLTESINRDSEEPFSSVEIQAALSKMQDDNQVMVSEGIIFLI [MCM3] | -0.0464 | 0.00594 | 1.52 | 2.24 | 51.5 | 51.2
6 | MSDIGDWFRSIPAITRYWFAATVAVPLVGKLGLISPAYLFLWPEAFLYRFQIWRPITATFYFPVGPGTGFLYLVNLYFLYQYSTRLETGAFDGRPADYLFMLLFNWICIVITGLAMDMQLLMIPLIMSVLYVWAQLNRDMIVSFWFGTRFKACYLPWVILGFNYIIGGSVINELIGNLVGHLYFFLMFRYPMDLGGRNFLSTPQFLYRWLPSRRGGVSGFGVPPASMRRAADQNGGGGRHNWGQGFRLGDQ [DERL1] | -0.273 | 0.00239 | -0.109 | -0.882 | 51.6 | 55.3
